# Measurements as given in publication PMC4831024.
# Legend:
# [1] = biological target: GFP–WRN ΔX (deleted XLF-like motif) (human) (UniProt Q14191); assay: co-IP; GFP-tagged proteins recovered on GFP-TRAP beads from transfected HEK293T extract (25 mM Tris-HCl pH 7.5, 150 mM NaCl, 10% glycerol, 0.5% Triton X-100, 1 mM DTT), 1 h at 4 °C; immunoblot for GFP, Ku80 and DNA–PKcs; Ku quantified by ImageJ relative to wild-type WRN
# Ku (Homo sapiens) = Ku (Homo sapiens) (UniProt P12956); details: cited from earlier work
# Ku (Homo sapiens), sequence (P12956 2-609, chain 1 of 2): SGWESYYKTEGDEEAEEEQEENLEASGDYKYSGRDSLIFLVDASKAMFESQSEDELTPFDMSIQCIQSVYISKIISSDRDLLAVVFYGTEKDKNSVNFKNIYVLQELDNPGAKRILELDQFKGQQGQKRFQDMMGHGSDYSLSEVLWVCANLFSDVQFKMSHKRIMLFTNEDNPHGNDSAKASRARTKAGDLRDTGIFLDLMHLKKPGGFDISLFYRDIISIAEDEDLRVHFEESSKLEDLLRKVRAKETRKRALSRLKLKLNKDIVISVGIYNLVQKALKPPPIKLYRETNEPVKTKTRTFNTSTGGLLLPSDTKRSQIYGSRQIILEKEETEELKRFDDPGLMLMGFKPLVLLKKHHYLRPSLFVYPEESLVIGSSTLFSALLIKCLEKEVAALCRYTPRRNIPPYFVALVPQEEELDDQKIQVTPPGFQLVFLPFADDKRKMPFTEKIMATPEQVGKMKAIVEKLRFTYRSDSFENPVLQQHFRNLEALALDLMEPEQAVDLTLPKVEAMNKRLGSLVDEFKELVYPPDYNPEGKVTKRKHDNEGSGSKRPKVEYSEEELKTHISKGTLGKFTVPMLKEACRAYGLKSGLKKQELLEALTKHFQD
# Ku (Homo sapiens), sequence (P13010 2-732, chain 2 of 2, further chain): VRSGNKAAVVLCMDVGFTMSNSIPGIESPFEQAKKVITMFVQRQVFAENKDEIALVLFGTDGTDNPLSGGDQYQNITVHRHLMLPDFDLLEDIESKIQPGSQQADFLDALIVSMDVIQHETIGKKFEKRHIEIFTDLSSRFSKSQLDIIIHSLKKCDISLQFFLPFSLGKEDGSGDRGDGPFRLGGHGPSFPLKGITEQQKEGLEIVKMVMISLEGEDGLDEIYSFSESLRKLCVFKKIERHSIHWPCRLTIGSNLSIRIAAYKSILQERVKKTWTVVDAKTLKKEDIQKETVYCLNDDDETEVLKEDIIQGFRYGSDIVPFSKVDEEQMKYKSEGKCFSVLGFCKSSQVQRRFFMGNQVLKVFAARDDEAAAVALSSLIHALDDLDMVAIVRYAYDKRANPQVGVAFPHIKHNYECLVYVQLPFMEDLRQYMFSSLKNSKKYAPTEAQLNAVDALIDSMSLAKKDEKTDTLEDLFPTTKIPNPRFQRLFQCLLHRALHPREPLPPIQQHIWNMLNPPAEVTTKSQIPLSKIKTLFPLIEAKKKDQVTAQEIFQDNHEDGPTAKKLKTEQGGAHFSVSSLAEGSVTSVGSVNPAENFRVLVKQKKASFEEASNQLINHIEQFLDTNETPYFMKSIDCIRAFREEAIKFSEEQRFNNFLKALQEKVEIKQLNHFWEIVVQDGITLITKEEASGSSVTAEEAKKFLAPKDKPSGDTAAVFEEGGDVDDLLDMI
# Ku80, endogenous, sequence (P13010 whole entry): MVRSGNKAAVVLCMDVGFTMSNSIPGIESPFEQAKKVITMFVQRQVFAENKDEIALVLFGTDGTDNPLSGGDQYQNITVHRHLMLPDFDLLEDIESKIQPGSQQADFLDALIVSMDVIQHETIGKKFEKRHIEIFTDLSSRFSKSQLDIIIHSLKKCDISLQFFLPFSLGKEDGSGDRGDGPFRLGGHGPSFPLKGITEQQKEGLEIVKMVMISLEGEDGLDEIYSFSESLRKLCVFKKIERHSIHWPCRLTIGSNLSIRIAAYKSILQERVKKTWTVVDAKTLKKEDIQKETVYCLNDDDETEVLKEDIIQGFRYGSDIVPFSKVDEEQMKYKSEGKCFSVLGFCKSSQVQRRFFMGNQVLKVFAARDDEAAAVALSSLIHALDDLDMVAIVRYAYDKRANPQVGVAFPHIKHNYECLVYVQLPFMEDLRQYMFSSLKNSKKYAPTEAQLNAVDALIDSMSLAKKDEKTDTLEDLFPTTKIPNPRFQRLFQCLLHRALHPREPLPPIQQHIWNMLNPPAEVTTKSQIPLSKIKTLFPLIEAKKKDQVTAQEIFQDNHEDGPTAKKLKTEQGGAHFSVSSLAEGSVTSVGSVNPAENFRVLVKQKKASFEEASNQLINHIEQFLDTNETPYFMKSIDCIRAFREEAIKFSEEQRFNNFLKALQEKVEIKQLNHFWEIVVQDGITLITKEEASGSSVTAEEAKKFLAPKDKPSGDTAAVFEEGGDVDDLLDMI
# GFP–WRN ΔX (deleted XLF-like motif) (human), sequence (Q14191 whole entry, stated change not applied): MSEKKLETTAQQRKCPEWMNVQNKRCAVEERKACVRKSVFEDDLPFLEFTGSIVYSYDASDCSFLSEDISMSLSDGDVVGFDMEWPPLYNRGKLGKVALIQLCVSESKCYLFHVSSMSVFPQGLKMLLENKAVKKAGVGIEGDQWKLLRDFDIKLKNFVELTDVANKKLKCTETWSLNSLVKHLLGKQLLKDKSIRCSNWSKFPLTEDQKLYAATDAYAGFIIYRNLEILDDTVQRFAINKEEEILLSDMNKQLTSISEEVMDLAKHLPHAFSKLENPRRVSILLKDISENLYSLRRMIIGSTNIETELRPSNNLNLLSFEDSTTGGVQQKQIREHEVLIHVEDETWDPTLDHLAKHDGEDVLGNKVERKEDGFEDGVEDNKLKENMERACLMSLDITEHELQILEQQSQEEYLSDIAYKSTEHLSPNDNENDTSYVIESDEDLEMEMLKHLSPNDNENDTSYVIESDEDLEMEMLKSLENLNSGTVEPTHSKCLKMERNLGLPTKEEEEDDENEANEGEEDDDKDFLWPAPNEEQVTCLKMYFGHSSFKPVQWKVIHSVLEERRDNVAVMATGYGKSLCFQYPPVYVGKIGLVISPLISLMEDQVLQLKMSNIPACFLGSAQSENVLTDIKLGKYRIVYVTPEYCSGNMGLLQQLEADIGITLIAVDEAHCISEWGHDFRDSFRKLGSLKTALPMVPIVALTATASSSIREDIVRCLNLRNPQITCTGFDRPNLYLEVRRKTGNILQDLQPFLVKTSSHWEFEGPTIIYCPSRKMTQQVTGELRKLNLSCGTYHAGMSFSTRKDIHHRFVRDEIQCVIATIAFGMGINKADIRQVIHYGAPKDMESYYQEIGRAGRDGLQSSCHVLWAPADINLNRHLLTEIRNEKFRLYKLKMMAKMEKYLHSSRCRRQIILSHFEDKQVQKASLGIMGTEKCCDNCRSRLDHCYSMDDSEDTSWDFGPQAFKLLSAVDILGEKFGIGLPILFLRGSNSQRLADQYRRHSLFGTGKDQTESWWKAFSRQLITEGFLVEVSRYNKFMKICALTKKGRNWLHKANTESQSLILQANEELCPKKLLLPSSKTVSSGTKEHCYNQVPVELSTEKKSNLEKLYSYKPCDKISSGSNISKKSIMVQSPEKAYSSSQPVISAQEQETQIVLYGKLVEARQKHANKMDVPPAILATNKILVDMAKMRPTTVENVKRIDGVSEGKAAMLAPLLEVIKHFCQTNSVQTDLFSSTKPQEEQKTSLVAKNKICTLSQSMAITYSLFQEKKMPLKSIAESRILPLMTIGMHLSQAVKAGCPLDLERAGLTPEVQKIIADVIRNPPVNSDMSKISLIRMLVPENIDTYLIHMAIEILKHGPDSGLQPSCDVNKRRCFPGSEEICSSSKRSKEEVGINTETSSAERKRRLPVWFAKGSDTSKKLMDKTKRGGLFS
Substance,"percent reduction of Ku co-precipitated, relative to wild-type GFP-WRN [1]",Kd (Ku (Homo sapiens))
"Ku80, endogenous (from UniProt P13010 1-732) (natural protein)",30%,–
APLF KBM (from UniProt Q8IW19),–,600 nM
